Experimental data reported in the DeepSol protein solubility set.

Assay: soluble on expression in E. coli; label from the status in PepcDB or PDB records

| Sequence | soluble on expression in E. coli |
| --- | --- |
| MNSRIETFHQMEWHFFSLISMELLSLEGLKACNSGMPIPALNPVFYSGKSTLLVAEIYQCKRFYESHSVPWALMVPDYLSDTKTDNVLAQSGFLSIDQGVAMYLSIQDLGMPGFKSDLLIKRMDNEMETWILPTIPAFESTAEIAKIYRVRHQEAIEKSSDIYHFSGFIQEQIVCSLTLTVMGDCARIDDVATFPKYQKNGYATQLILSELQILKDTNISWCFLEASADGLNIYKKIGFRELFKNLYYEEQYHYEQN | not soluble |
| MPCRGLHSIPAGPVEFPEIATVYVMCGEKLTVMIDAGVSNSIADFSFLDKLDYIVLTHLHIDHIGLLPELLQVYKAKVLVKSGFKKYLTSEDGLKKLNESAEKVLGDLYYVYGGLEKKLDQDKVIEVEGNEEFDLGGYRMRLIYTPGHARHHMSVLVDDFLFTGDSAGAYFNGVVIPTTPPVIDYKMYMESLKRQIELKPKVVGFAHGGLVSPKIMEEHLKQMLSKEEIQINVDIGGVAGEILRKQIEVNLRGLRESKKSI | soluble |
| MGHHHHHHHHHHSSGHIDDDDKHMRGREEKAPEEPQPVKMPENNSVVEATWNDVQLEDSLGMEVGYRLIPMVDFQQDGELLGRIRSIRKKFAQDMGFLPPVVHIRDNMDLQPARYRILMKGVEIGSGDAYPGRWLAINPGTAAGTLPGEKTVDPAFGLDAIWIESALKEQAQIQGFTVVEASTVVATHLNHLIGQFSAELFGRQEAQQLLDRVSQEMPKLTEDLVPGVVTLTTLHKVLQNLLAEKVPIRDMRTILETLAEHAPLQSDPHELTAVVRVALGRAITQQWFPGNEEVQVIGLDTALERLLLQALQGGGGLEPGLADRLLAQTQEALSRQEMLGAPPVLLVNHALRPLLSRFLRRSLPQLVVLSNLELSDNRHIRMTATIGGK | soluble |
| MGSDKIHHHHHHMRRKIPSTTALVSFEAAARHESFTKAAHELSLTQGAVCRQIGGLEEFLGIELFRRSRRGVKLTEAGLSYSRRVAQQLDAVERDTLSVMGEQGAHAIELAVVPTFGTQWLLPRLKDFQHKHPDVTVHLTNRTRPFLFADTDFDAAIYFGDADWSGTQSHRLMGENSLPVCSPSFLGGRGSLKASELAELPLLQQTTRPYAWRQWFNAQNLNVARDMTGPRYELFSMLAQAAMHDMGVALIPPFLILRELHEKRLVIASISALPSNKAYHLMIPERKVESASLTAFRDWLVNQAHDYSLPQDKEQALV | not soluble |
| MAHHHHHHMADSIKSSNSFQKLDNIDAKETSTVDRKWVALTAYQPVDVVTKTVEVPIIKTVEKYVPKTIIQEKIIHVPKNVTHIVEKIVEVPEVKYIEKIVEVPHIHYKNKYVPKIEIVEKVVERQKIIEKWHDKIVEVPQIKEVVRFKQIEDSEEIIKYVPRNSKNIDWEDEYKKYTESKGLQRYSLDQNNIYQQANSFNQFNENAYNQNAFNRSYELLNKQSSVKSQNNASGENFSQMNFYNQYSGANFEQERSIQASNFEPSGSMQLKRLSSEEIKPAGCCSAACT | soluble |
| GSHMQTHAARMRTFMYWPSSVPVQPEQLASAGFYYVGRNDDVKCFCCDGGLRCWESGDDPWVEHAKWFPRCEFLIRMKGQEFVDEIQGRYPHLLEQLLSTS | soluble |
| MAAERLDPWGAVEIKDYDRLLRTFGIRPFSEVLPLLRKAGMEPSFLMRRGIIFGHRDFDKILEAKARGERVAVLTGFMPSGKFHFGHKLTVDQLIYLQKNGFKVFVAIADAEAFAVRRIGREEAVRIAVEEYIANMIALGLDPKDTEFYFQTNRGTPYFRLIQLFSGKVTAAEMEAIYGELTPAKMMASLTQAADILHVQLDEYGGYRHVVVPVGADQDPHLRLTRDLADRMAGVVELERPASTYHKLQPGLDGRKMSSSRPDSTIFLTDPPEVARNKLFRALTGGRATAEEQRRLGGVPEVCSVYHMDLYHLMPDDGEVKHIYTSCRLGKILCGECKQIAWEKLERFLAEHQSRLEKAKTIAWKLVEPPRF | soluble |
| MKKEEMDVVSLRIIKLYFLGIRELNFPDYNKRFQQKDMELFIQLADMMENLPNLDEQLIYELEELKDYLFYVKTEKYSLTVHDMFLEMKSELEKII | not soluble |
| MGSDKIHHHHHHMSRAITRAQLDKLVRSITKFYPQKYADKSWDNTGLLIDCSTAQVTTADANAKTKVLLTVDLTKSVAQEAVDANCNVIVAYHPFIFPSWNRLSPHTNPQHETAIKLIQYGISVYCPHTAVDAARGGVNDWLVRGLNNGENVAKSYALETVSGETDDLIGYGRFVEFNKDISLEQIVKNVKRVLRVPYVQVASLAAPSAWNQLKIKKVAVCAGSGSGVFKQLKEDVDLYYTGEMSHHEVLKWKEMGKTVIVCNHSNTERGFLQDVMKGLLQDEGHEVVVSKMDCDPLTVA | not soluble |
| MKKETLYVAFSTQKGGVGKTTFTVLVASYLYYLKGYNVAVVDCDYPQHSISAMRKRDAEQVNGDDYYKQLAFSQFKTLGKKAYPVLCSSPDEAIKTADEFLASAGSDYDVVFFDLPGTVNSEGVINSLSGVDYIFTPIAADRVVLESSLSFAVAINKLLVKNEACRLKGLHLFWNMVDGREKTDLYTLYEQTIGELELPLMKVFIPDTKRFKKELDAQRKTVFRSTLFPADKRLVKGSNIEELITEIAYLIKL | soluble |
| KVKVPYLRLSLPELHIDMDFLKKTVDFSSISALQQTVLYIGRLLVQSGINTLGVDAVAAFNAVSIIDSYVLAPGDSLAASITTFTAQNKGGKQYHRIPKG | not soluble |
| MHHHHHHENLYFQSNAMAKSRLLLSELLDQLSFALCIVRNDYVIVKVNEYFESRVIFDGETMQGKNILELFPESADYLKRKIDTALVIESSSFSSWEQKPHLLPFKSSRPVSGEEEQMYQNLEVIPIHSEDGTIEHVCLCVYDVTIQASQQQ | soluble |
| MGSDKIHHHHHHMVQEIAQEIIRSARKKGTQDIYFVPKLDAYELHMRVGDERCKIGSYDFEKFAAVISHFKFVAGMNVGEKRRSQLGSCDYAYDHKIASLRLSTVGDYRGHESLVIRLLHDEEQDLHFWFQDIEELGKQYRQRGLYLFAGPVGSGKTTLMHELSKSLFKGQQVMSIEDPVEIKQDDMLQLQLNEAIGLTYENLIKLSLRHRPDLLIIGEIRDSETARAVVRASLTGATVFSTIHAKSIRGVYERLLELGVSEEELAVVLQGVCYQRLIGGGGIVDFASRDYQEHQAAKWNEQIDQLLKDGHITSLQAETEKISYS | not soluble |
| MGSDKIHHHHHHMEKKVICQDIFWSCDGTSFVSVHNDFGIRQYLVPEESNTDKLNRNLLLPFTRFFRNQSIVSCAIDPFYTLYNENSDRLAGDRIVVGGKNFPLQLYSLMDGQCILSYDTMNKINGEYETVYSVKIDVESRVYTGSCRNKVAIYDKSRRDAVWMNQSTKKASKGRQSIISCFEEQPMGGQALSRGSLLCGSYANEMFQVDCRHQRLERLNYTRTVAGGIVQILTSDNGRYVYVVRRNSDAISIYDRRNLQHELNVLRLPFRIHHNSAKLKAYIDTAYGLSMGTPQGTILNWGRDLVEFGGVPSHNSVEDPLITSIPPESEWRTNLDSTIPATVVKNCPGDPELFALSHGGTISLCRFGG | not soluble |
| MSLRKEPYLLVFGASVVDVFGFSKASYRPYNSTPGHVKISFGGVCRNIAENMARVGVNTNFMSILGNDEHGKSIVEHSKKIGYHMDDSMVIEGGSTPTYLAILDENGEMVSAIADMKSIGAMNTDFIDSKREIFENAEYTVLDSDNPEIMEYLLKNFKDKTNFILDPVSAEKASWVKHLIKDFHTIKPNRHEAEILAGFPITDTDDLIKASNYFLGLGIKKVFISLDADGIFYNDGVSCGKIKATEVDVKNVTGAGDSFVAGLGYGYMNKMPIEDIVKFAMTMSNITISHEETIHPDMALDTVLAKLEKTTWEEEKYDLNEGHHHHHH | soluble |
| MSLEIGILDIKGSLPLFEDFGNLPTKIITENNYKEIKDLDALIIPGGSLIESKSLNDDLKKEIINFNGYIIGICSGFQILAKKIDIGRKSSVPIIKEGLGLLDVEFSPLVCTDRVEFEVKKSIFGEGKGEGFHCHTYGNIEVVDKETKILTVSKVKKLNYKLGAEKEIISGAFKGKVFGTMVHNFLDNEFVRDNFLKHLGVTEDEKEEIFEKNKIIKDELKKRALKYRLNPKLLKENNKKDVNKKRGIILLATSSNSGKTFLTTALSSKLNGRVFVAKIGGDVRDIVPALYLLREKMTKYNSIKIGERGWVDVSKFLDYIKKSDYDYIIVEGVMGAFTAALKNISSYQIAKKLGFPVYIVSACNISGIEGAFVEAMAYYSLLKDIGIKVEGVILNKVYDWNSFNKLKSLAEKHNIKLYGVGKIANESRGLIPEVEIDYESFCRNAFNVDLEIEIPEVEINNHIKDEEDNFLERLDNWMENINEGHHHHHH | soluble |
